Source: article PMC4687643

Legend:
[1] = target: GST-endophilin I SH3 domain (mouse) (UniProt Q62420)
[2] = target: GST-intersectin I SH3E domain (Xenopus laevis)
[3] = target: GST-intersectin I SH3C domain (Xenopus laevis)
[4] = target: GST-p85 SH3 domain (bovine) (UniProt P23727)
[5] = target: GST-amphiphysin I SH3 domain (human) (UniProt P49418)
[6] = target: GST-intersectin I SH3A domain (Xenopus laevis)
[7] = target: GST-Cdc42 interacting protein 4 (CIP4) SH3 domain (human) (UniProt Q15642)
[8] = target: GST-cortactin SH3 domain (mouse) (UniProt Q60598)
[9] = target: GST-Formin Binding Protein 17 (FBP17) SH3 domain (human) (UniProt Q96RU3)
[10] = target: GST-Actin binding protein 1 (Abp1) SH3 domain (mouse) (UniProt Q62418)
[11] = target: GST-sorting-nexin 9 (SNX9) SH3 domain (human) (UniProt Q9Y5X1)
[12] = target: GST-syndapin I SH3 domain (mouse) (UniProt Q61644)
[13] = target: GST-amphiphysin II SH3 domain (human) (UniProt O00499)
[14] = target: GST-endophilin I SH3 domain (mouse) (UniProt Q62420); remark: listed apart in the source
[15] = target: GST-intersectin I SH3E domain (Xenopus laevis); remark: listed apart in the source
[16] = target: GST-intersectin I SH3C domain (Xenopus laevis); remark: listed apart in the source
[17] = target: GST-p85 SH3 domain (bovine) (UniProt P23727); remark: listed apart in the source
[18] = target: GST-amphiphysin I SH3 domain (human) (UniProt P49418); remark: listed apart in the source
[19] = target: GST-Cdc42 interacting protein 4 (CIP4) SH3 domain (human) (UniProt Q15642); remark: listed apart in the source
[20] = target: GST-cortactin SH3 domain (mouse) (UniProt Q60598); remark: listed apart in the source
[21] = target: GST-Formin Binding Protein 17 (FBP17) SH3 domain (human) (UniProt Q96RU3); remark: listed apart in the source
[22] = target: GST-Actin binding protein 1 (Abp1) SH3 domain (mouse) (UniProt Q62418); remark: listed apart in the source
[23] = target: GST-syndapin I SH3 domain (mouse) (UniProt Q61644); remark: listed apart in the source
[24] = target: GST-amphiphysin II SH3 domain (human) (UniProt O00499); remark: listed apart in the source

Chain of GST-Formin Binding Protein 17 (FBP17) SH3 domain (human) (Q96RU3 550-611): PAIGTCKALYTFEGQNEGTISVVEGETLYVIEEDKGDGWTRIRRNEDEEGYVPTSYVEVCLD
Chain of GST-cortactin SH3 domain (mouse) (Q60598 488-546): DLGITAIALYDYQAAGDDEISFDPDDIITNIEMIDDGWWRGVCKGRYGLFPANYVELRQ
Chain of GST-syndapin I SH3 domain (mouse) (Q61644 382-441): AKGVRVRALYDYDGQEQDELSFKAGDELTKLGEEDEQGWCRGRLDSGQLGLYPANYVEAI
Chain of GST-amphiphysin I SH3 domain (human) (P49418 622-695): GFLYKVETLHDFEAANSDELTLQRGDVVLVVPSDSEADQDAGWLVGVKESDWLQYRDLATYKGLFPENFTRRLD
Chain of GST-endophilin I SH3 domain (mouse) (Q62420 290-349): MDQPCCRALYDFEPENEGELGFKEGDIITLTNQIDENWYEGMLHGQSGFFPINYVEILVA
Chain of GST-Cdc42 interacting protein 4 (CIP4) SH3 domain (human) (Q15642 540-601): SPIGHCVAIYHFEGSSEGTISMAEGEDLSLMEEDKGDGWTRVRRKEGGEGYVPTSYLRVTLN
Chain of GST-Actin binding protein 1 (Abp1) SH3 domain (mouse) (Q62418 377-436): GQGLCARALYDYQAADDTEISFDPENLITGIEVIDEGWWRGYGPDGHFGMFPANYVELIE
Chain of GST-amphiphysin II SH3 domain (human) (O00499 520-593): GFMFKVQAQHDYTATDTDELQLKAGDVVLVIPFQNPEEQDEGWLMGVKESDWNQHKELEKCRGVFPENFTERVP
Chain of GST-sorting-nexin 9 (SNX9) SH3 domain (human) (Q9Y5X1 1-62): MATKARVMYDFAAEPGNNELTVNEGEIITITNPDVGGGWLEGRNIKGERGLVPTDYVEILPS

Row | rate of dynamin GTPase activity stimulated by the GST-SH3 domain (ELIPA, 30 mM NaCl, basal rate subtracted) (μmoles Pi/mg of dyn/min) [1] | rate of dynamin GTPase activity stimulated by the GST-SH3 domain (ELIPA, 30 mM NaCl, basal rate subtracted) (μmoles Pi/mg of dyn/min) [2] | rate of dynamin GTPase activity stimulated by the GST-SH3 domain (ELIPA, 30 mM NaCl, basal rate subtracted) (μmoles Pi/mg of dyn/min) [3] | rate of dynamin GTPase activity stimulated by the GST-SH3 domain (ELIPA, 30 mM NaCl, basal rate subtracted) (μmoles Pi/mg of dyn/min) [4] | rate of dynamin GTPase activity stimulated by the GST-SH3 domain (ELIPA, 30 mM NaCl, basal rate subtracted) (μmoles Pi/mg of dyn/min) [5] | rate of dynamin GTPase activity stimulated by the GST-SH3 domain (ELIPA, 30 mM NaCl, basal rate subtracted) (μmoles Pi/mg of dyn/min) [6] | rate of dynamin GTPase activity stimulated by the GST-SH3 domain (ELIPA, 30 mM NaCl, basal rate subtracted) (μmoles Pi/mg of dyn/min) [7] | rate of dynamin GTPase activity stimulated by the GST-SH3 domain (ELIPA, 30 mM NaCl, basal rate subtracted) (μmoles Pi/mg of dyn/min) [8] | rate of dynamin GTPase activity stimulated by the GST-SH3 domain (ELIPA, 30 mM NaCl, basal rate subtracted) (μmoles Pi/mg of dyn/min) [9] | rate of dynamin GTPase activity stimulated by the GST-SH3 domain (ELIPA, 30 mM NaCl, basal rate subtracted) (μmoles Pi/mg of dyn/min) [10] | rate of dynamin GTPase activity stimulated by the GST-SH3 domain (ELIPA, 30 mM NaCl, basal rate subtracted) (μmoles Pi/mg of dyn/min) [11] | rate of dynamin GTPase activity stimulated by the GST-SH3 domain (ELIPA, 30 mM NaCl, basal rate subtracted) (μmoles Pi/mg of dyn/min) [12] | rate of dynamin GTPase activity stimulated by the GST-SH3 domain (ELIPA, 30 mM NaCl, basal rate subtracted) (μmoles Pi/mg of dyn/min) [13] | dynamin GTPase activity stimulated by the GST-SH3 domain (ELIPA, 150 mM NaCl) (μmoles Pi/mg of dynamin) [14] | dynamin GTPase activity stimulated by the GST-SH3 domain (ELIPA, 150 mM NaCl) (μmoles Pi/mg of dynamin) [15] | dynamin GTPase activity stimulated by the GST-SH3 domain (ELIPA, 150 mM NaCl) (μmoles Pi/mg of dynamin) [16] | dynamin GTPase activity stimulated by the GST-SH3 domain (ELIPA, 150 mM NaCl) (μmoles Pi/mg of dynamin) [17] | dynamin GTPase activity stimulated by the GST-SH3 domain (ELIPA, 150 mM NaCl) (μmoles Pi/mg of dynamin) [18] | dynamin GTPase activity stimulated by the GST-SH3 domain (ELIPA, 150 mM NaCl) (μmoles Pi/mg of dynamin) [19] | dynamin GTPase activity stimulated by the GST-SH3 domain (ELIPA, 150 mM NaCl) (μmoles Pi/mg of dynamin) [20] | Substance | also measured
1 | 0.016 | 0.036 | 0.017 | 0.02 | 0.056 | 0.075 | 0.019 | 0.102 | 0.098 | 0.011 | 0.041 | 0.068 | 0.013 | < 0.03 | < 0.03 | < 0.03 | < 0.03 | < 0.03 | < 0.03 | < 0.03 | recombinant human dynamin I middle domain splice variant Ibb (enzyme) | dynamin GTPase activity stimulated by the GST-SH3 domain (ELIPA, 150 mM NaCl) (μmoles Pi/mg of dynamin) [21]: < 0.03; dynamin GTPase activity stimulated by the GST-SH3 domain (ELIPA, 150 mM NaCl) (μmoles Pi/mg of dynamin) [22]: < 0.03; dynamin GTPase activity stimulated by the GST-SH3 domain (ELIPA, 150 mM NaCl) (μmoles Pi/mg of dynamin) [23]: < 0.03; dynamin GTPase activity stimulated by the GST-SH3 domain (ELIPA, 150 mM NaCl) (μmoles Pi/mg of dynamin) [24]: < 0.03
2 | 0.032 | 0.023 | 0 | 0.014 | 0.032 | 0.026 | 0 | 0.03 | 0.084 | 0.011 | 0.03 | 0.026 | 0.01 | < 0.03 | < 0.03 | < 0.03 | < 0.03 | < 0.03 | < 0.03 | < 0.03 | recombinant human dynamin I middle domain splice variant Iab (enzyme) | dynamin GTPase activity stimulated by the GST-SH3 domain (ELIPA, 150 mM NaCl) (μmoles Pi/mg of dynamin) [21]: < 0.03; dynamin GTPase activity stimulated by the GST-SH3 domain (ELIPA, 150 mM NaCl) (μmoles Pi/mg of dynamin) [22]: < 0.03; dynamin GTPase activity stimulated by the GST-SH3 domain (ELIPA, 150 mM NaCl) (μmoles Pi/mg of dynamin) [23]: < 0.03; dynamin GTPase activity stimulated by the GST-SH3 domain (ELIPA, 150 mM NaCl) (μmoles Pi/mg of dynamin) [24]: < 0.03
